Reference: patent publication US10654917B2, “Antibody molecules and peptide delivery systems for use in alzheimer's disease and related disorders” (TECHNOPHAGE, INVESTIGAÇĀO E DESENVOLVIMENTO EM …, priority 2015, dated 2020)

Key:
oligomeric form of BAP42 = molecular target: T1, oligomeric form of BAP42 (Homo sapiens, UniProt P05067); test: BIAcore binding profile to BAP42 oligomers
T1 construct: “beta-amyloid peptide 42”, or “beta-amyloid peptide 1-42”; oligomerised in house (1 mg/mL, stirring 16 h at 37 °C, retained on 5 kDa filter)
T1 sequence (P05067 672-713 limits assumed): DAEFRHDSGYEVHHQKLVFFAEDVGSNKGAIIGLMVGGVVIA
From the text: Anti-oligomer sdAbs where characterized further regarding their relative binding profile to BAP42 oligomers by BIAcore.
Results are showing in FIGS. 16A-16D, respectively (kinetic studies) and Tables 14-16, respectively (biodistribution studies), presented below.

[1] = CAT-fusion assay: chloramphenicol resistance as measure of sdAb stability; format: cell-based, E. coli
From the text: Clones were further selected for stability using a modified CAT-fusion assay, as previously described (see, e.g., WO 2008/136694 to Goncalves et al). Specifically, the CAT gene was amplified from pCAT (Stratagene) by PCR and inserted into pET-derived plasmid using EcoRI and SphI restriction sites to create the pE-CAT. The 5′PCR primer originally used to clone the variable domains was also designed to contain two sequential and different SfiI cloning sites, and an amber codon (TAG) just before the beginning of the CAT gene.
To clone single-domain antibody libraries fused into the CAT gene, SDVL fragments were generated by PCR from phagemid vectors selected by panning. The resulting SDVL PCR fragments were gel-purified, digested with the restriction endonuclease SfiI, and cloned independently into the appropriately SfiI-cut vector pE-CAT. The pSDVL-CAT constructs were under the control of the strong Lac promoter that also included an N-terminal His6 affinity tag and the ampicillin resistance gene. Alternatively, SDVL fragments may be cloned into readily available vectors designed to express cloned sequences as fusion proteins with CAT, e.g., the PCFN1 vector (see Maxwell, et al (1999) J Prot Sci 8:1908-1911, incorporated by reference in its entirety).
Chloramphenicol resistance assays were performed by transforming ER2783 cells (New England Biolabs, Inc) with each single domain CAT-fusion library. The transformation mixtures were inoculated into 5 mL of SOC and incubated at 37° C. for 1 hour. Next, 10 mL of SB medium with 3 μL of 100 mg/ml ampicillin was added to each library. A total of 15 mL of each culture was shaken for 1 hour at 37° C. Subsequently, 4.5 μL of 100 mg/ml ampicillin was added and cultures shaken for one hour at 37° C. Then 85 mL of SB medium with 85 μL of 100 mg/ml ampicillin was added and cultures grown overnight at 37° C. The following day, 600 μL of each culture was used to inoculate 20 mL of SB medium containing 100 μg/mL of ampicillin.
Expression of CAT-fusion single domain proteins was induced by addition of 0.5 mM IPTG when the optical density of cultures reached 0.9 (at […]). After 2 hours of incubation at 37° C., 100 μL aliquots of each library were plated on agar plates with IPTG (200 μg/mL) and various concentrations of chloramphenicol. Plates were incubated at 37° C. for 16-20 hours. The level of resistance was quantified as the highest level of chloramphenicol at which colonies appeared after the 37° C. incubation period. […] Results are shown in Table 6, below, where +++ indicates over 600 colonies detected; ++ indicates 400-600 colonies detected; + indicates 1-399 colonies detected; and − indicates no colonies detected at the corresponding chloramphenicol concentration. “sdAb2”, “sdAb6”, “sdAb20”, and “sdAb26” are sdAb candidates that bind BAP42 oligomers.

[2] = parameters: species or system CD1 mice; settings: mouse, in vivo
Procedure: The different antibody-peptide constructs were used in biodistribution assays, and results compared with the biodistribution of the respective DEN2C peptides (pepH1, pepH2, pepH3, and pepM′, chemically synthesized). […] After expression and purification, the sdAbs and sdAb-peptide constructs were conjugated to technetium (^99Tc) and a biodistribution assay was performed, as previously described.
Tables 14-16 show the biodistribution of different anti-BAP42 sdAbs and constructs thereof with different peptides (“pepH3”).

[3] = 10^0, [chloramphenicol] 0.03 mM
[4] = 10^0, [chloramphenicol] 0.06 mM
[5] = 10^0, [chloramphenicol] 0.25 mM
[6] = 10^0, [chloramphenicol] 0.31 mM
[7] = 10^0, [chloramphenicol] 0.62 mM
[8] = 10^0, [chloramphenicol] 1.24 mM
[9] = 10^0, [chloramphenicol] 1.86 mM
[10] = 10^0, [chloramphenicol] 2.48 mM
[11] = 10^−2, [chloramphenicol] 0.03 mM
[12] = 10^−2, [chloramphenicol] 0.06 mM
[13] = 10^−2, [chloramphenicol] 0.25 mM
[14] = 10^−2, [chloramphenicol] 0.31 mM
[15] = 10^−2, [chloramphenicol] 0.62 mM
[16] = 10^−2, [chloramphenicol] 1.24 mM
[17] = 10^−2, [chloramphenicol] 1.86 mM
[18] = 10^−2, [chloramphenicol] 2.48 mM

Row | Molecule | binding profile to the oligomeric form of BAP42 (oligomeric form of BAP42) | colonies detected (CAT-fusion chloramphenicol resistance) [1, 3] | colonies detected (CAT-fusion chloramphenicol resistance) [1, 4] | colonies detected (CAT-fusion chloramphenicol resistance) [1, 5] | colonies detected (CAT-fusion chloramphenicol resistance) [1, 6] | colonies detected (CAT-fusion chloramphenicol resistance) [1, 7] | colonies detected (CAT-fusion chloramphenicol resistance) [1, 8] | colonies detected (CAT-fusion chloramphenicol resistance) [1, 9] | colonies detected (CAT-fusion chloramphenicol resistance) [1, 10] | colonies detected (CAT-fusion chloramphenicol resistance) [1, 11] | colonies detected (CAT-fusion chloramphenicol resistance) [1, 12] | colonies detected (CAT-fusion chloramphenicol resistance) [1, 13] | colonies detected (CAT-fusion chloramphenicol resistance) [1, 14] | colonies detected (CAT-fusion chloramphenicol resistance) [1, 15] | colonies detected (CAT-fusion chloramphenicol resistance) [1, 16] | colonies detected (CAT-fusion chloramphenicol resistance) [1, 17] | colonies detected (CAT-fusion chloramphenicol resistance) [1, 18] | factor by which washout from the brain is slowed on linking to delivery peptide pepH3 [2] | factor of increase of presence in the brain on linking to delivery peptide pepH3 [2]
1 | #26: anti-BAP42 sdAb, SEQ ID NO: 18 (antibody, V domains shown) VL: ELDLTQTPSPVSAAVGGTVTISCQSSESVYSNNRLAWYQQKPGQPPKLLIYLASSLASGVPSRFKGSGSGTQFTLTIRDLECDDAATYYCLGYRSGSDGDAFGGGTELEIL | best binding profiles | +++ (+++ indicates over 600 colonies detected) | +++ (+++ indicates over 600 colonies detected) | +++ (+++ indicates over 600 colonies detected) | +++ (+++ indicates over 600 colonies detected) | +++ (+++ indicates over 600 colonies detected) | +++ (+++ indicates over 600 colonies detected) | +++ (+++ indicates over 600 colonies detected) | ++ (++ indicates 400-600 colonies detected) | +++ (+++ indicates over 600 colonies detected) | +++ (+++ indicates over 600 colonies detected) | +++ (+++ indicates over 600 colonies detected) | +++ (+++ indicates over 600 colonies detected) | +++ (+++ indicates over 600 colonies detected) | +++ (+++ indicates over 600 colonies detected) | − (− indicates no colonies detected) | − (− indicates no colonies detected) | – | –
2 | #20: anti-BAP42 sdAb, SEQ ID NO: 2 (protein, /note=“Description of Unknown rabbit immunoglobulin VL domain polypeptide”; /note=“#20”) VHH: ELDLTQTPSSKSVPVGDTVTINCQASESVYSNNRLAWFQQKPGQPPKLLIYYASTLASGVPSRFKGSGSGTQFTLTISDVVCDDAATYYCAGYKSSTSDGIAFGGGTEVVVK | best binding profiles | +++ (+++ indicates over 600 colonies detected) | +++ (+++ indicates over 600 colonies detected) | +++ (+++ indicates over 600 colonies detected) | +++ (+++ indicates over 600 colonies detected) | +++ (+++ indicates over 600 colonies detected) | +++ (+++ indicates over 600 colonies detected) | +++ (+++ indicates over 600 colonies detected) | ++ (++ indicates 400-600 colonies detected) | +++ (+++ indicates over 600 colonies detected) | +++ (+++ indicates over 600 colonies detected) | +++ (+++ indicates over 600 colonies detected) | +++ (+++ indicates over 600 colonies detected) | +++ (+++ indicates over 600 colonies detected) | +++ (+++ indicates over 600 colonies detected) | − (− indicates no colonies detected) | − (− indicates no colonies detected) | – | –
3 | #2: anti-BAP42 sdAb, SEQ ID NO: 1 (antibody, V domains shown) VL: ELVMTQTPSPVSAAVGGTVSISCQSSKSVYNNNWLSWFQQKPGQPPKLLIYSASTLASGVSSRFKGSGSGTQFTLTISDVQCDDAATYYCQGEFDCSGDCNVFGGGTELEIL | best binding profiles | +++ (+++ indicates over 600 colonies detected) | +++ (+++ indicates over 600 colonies detected) | +++ (+++ indicates over 600 colonies detected) | +++ (+++ indicates over 600 colonies detected) | +++ (+++ indicates over 600 colonies detected) | +++ (+++ indicates over 600 colonies detected) | +++ (+++ indicates over 600 colonies detected) | ++ (++ indicates 400-600 colonies detected) | +++ (+++ indicates over 600 colonies detected) | +++ (+++ indicates over 600 colonies detected) | +++ (+++ indicates over 600 colonies detected) | +++ (+++ indicates over 600 colonies detected) | +++ (+++ indicates over 600 colonies detected) | +++ (+++ indicates over 600 colonies detected) | − (− indicates no colonies detected) | − (− indicates no colonies detected) | about 2 | about 3
